Experimental data from the nanobody polyreactivity screen of Harvey et al. (2022).

Assay: yeast display, Sf9 membrane polyspecificity reagent, FACS + sequencing; frameworks hold sequencing errors
How it was run: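 A nanobody's polyreactivity label depends on the gate it was sorted from. Yeast display cells were stained with 10% biotinylated, detergent-solubilized Sf9 membrane reagent for 1 hour at 4 °C, enriched on streptavidin microbeads and sorted by FACS. The low and high (top ~1%) gates were set on anti-HA fluorescence for expression and streptavidin fluorescence for reagent binding.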

Sequence	polyreactivity (PSR sort gate)
QVQLVESGGGLVQAGGSLRLSCAASGFIDAYTMGWYRQAPWKERELVAAITWSGGRTYYADSVKGRFTISRDNAKNTVYLQMNSLKPEDTAVYYCAKDVTPYSPDDDYWGQGTQVTVSS	low polyreactivity
QVQLVESGGGLVQAGGSLRLSCAASGFIDVSYAMGWYRQAPGKERELVAAIDRIGGITYYADSVKGRFTISRDNAKNTVYLQMNSLKPEDTAVYYCAAAARYATVRVGREYYWGQGTQVTVSS	low polyreactivity
QVQLVESGGGLVQAGGSLRLSCAASGFIFAAYAMGWYRQAPGKERELVAAISYSGDRTYYADSVKGRFTISRDNAKNTVYLQMNSLKPEDTAVYYCDADARAYTYDYWGQGTQVTVSS	high polyreactivity
QVQLVESGGGLVQAGGSLRLSCAASGFIFADYAMGWYRQAPGKERELVAAISASGGITYYADSVKGRFTISRDNAKNTVYLQMNSLKPEDTAVYYCNAVTGKWNWRKYDYWGQGTQVTVSS	high polyreactivity
QVQLVESGGGLVQAGGSLRLSCAASGFIFAFYAMGWYRQAPGKERELVAAISLSGGSTYYADSVKGRFTISRDNAKITVYLQMNSLKPDDTAVYYCAASRYKFYYWGQGTQVTVSS	high polyreactivity
QVQLVESGGGLVQAGGSLRLSCAASGFIFAGTAMGWYRQAPGKEWELVAAITRSGTNTYYADSVKGRFTISRDHAKNTVFLQMNSLKPEDTAVYYCNATVRYRYPYGYWGQGTQVTVSS	high polyreactivity
QVQLVESGGGLVQAGGSLRLSCAASGFIFAGYAMGWYRQAPGKERELVAGITRNGGSTYYADSVKGRFTISRDNAKITVYFQMYSLNPEDTAVYYCAATRYSFGPRRVDYWRQGTQVTVSS	high polyreactivity
QVQLVESGGGLVQAGGSLRLSCAASGFIFAGYHMAWYRQAPGKERELVAAISSSGANTYYADSVKGRFTISRDNAKNTVYLQMNSLKPEYSAVYYCAALYHWTYDYWGQGTQVTVSS	low polyreactivity
QVQLVESGGGLVQAGGSLRLSCAASGFIFAGYTMGWYRQAPGKERELVAAINSGGSTKYADSVKGRFTISRDNAKNTVYLHMNSLKPEDTAVYYCNADYGWYFLFDYWGQGTQVTVSS	low polyreactivity
QVQLVESGGGLVQAGGSLRLSCAASGFIFAHNAMGWYRQAPGKVRELVAAISWGSGSTYYADSVKGRFTISRDNAKITVYLQMNSLKPEDTAVSYCAARAVRYYAWVRGGWTSFDYWGQGTQVTVSS	high polyreactivity
QVQLVESGGGLVQAGGSLRLSCAASGFIFAIYAMGWYRQAPGKERELVAAITSSSSTYADSVKGRFTISRDNAKNTVYLQMNSLKPEDTAVYYCAADTYSYRYSNDYWGQGTQVTVSS	low polyreactivity
QVQLVESGGGLVQAGGSLRLSCAASGFIFALYARGWYRQAPGTERELVAAITSSSSTYAASVKGRFTISRDNAKNTVYLQMNSLKPEDTAVYYCAADTYSYRYSNDYWGQGTQVTVSS	low polyreactivity
QVQLVESGGGLVQAGGSLRLSCAASGFIFARNTMGWYRQAPGKERELVAAITKSGGSTYYADSVKGRFTISRDNAKNTVYLQMNSLKPEDTAVYYCAARTYTLRGVYFSGYNYWGQGTQVTVSS	low polyreactivity
QVQLVESGGGLVQAGGSLRLSCAASGFIFARYAMGWYRQAPGKERELVAAISSGGRTYFADSVKGRFTISRDNAKNTVYLQMNSLKPEDTAVYYCAKRPTNGYGTFDYWGQGTQVTVSS	high polyreactivity
QVQLVESGGGLVQAGGSLRLSCAASGFIFASNAMGWYRQAPGKERELVAAINSSGGSTYYADSVKGRFTISRDNAKNTVYLQMNSLKPEDTAVYYCAADVIGDLRWYRDEYWGHGTQVTVSS	low polyreactivity
QVQLVESGGGLVQAGGSLRLSCAASGFIFASYAMGWYRQAPGKERELVAAISWRGGSTYYADSVKGRFTISRDNAKNTVYLQMNSLKPEDTAVYYCNAYVYVGTGRGYDTLDYWGQGTQVTVSS	low polyreactivity

Sequence	polyreactivity (PSR sort gate)
QVQLVESGGGLVQAGGSLRLSCAASGFIFATYTMGWYRQAPGKERELVAAITWRGGSTYYADTVKGRFPISRDNAKNTVYLQMNSLKPEDTAVYYCAAQDVNSYRYVEDVYCGQGTQVTVSS	low polyreactivity
QVQLVESGGGLVQAGGSLRLSCAASGFIFAWNAMGWYRQAPGKERELVASISSGGGSTYYADSVKGRFTISRDNAKNTVYLQMNSLKPEDTAVYYCAASYAYLRGLHYYKYDSWGQGTQVTVSS	low polyreactivity
QVQLVESGGGLVQAGGSLRLSCAASGFIFAWYAMGWYRQAPGKERELVARISRGGSTYYADSVKGRFTISRDNAKNTVYLHMNSLKPEYTAVYYCTAGAAYTYTRYDYWGQGTQVTVSS	high polyreactivity
QVQLVESGGGLVQAGGSLRLSCAASGFIFAWYTMGWYRQAPGKERELVAAISANGGNTYYADSVKGRFTISRDNAKNTVYLQMNSLKPEDTAVYYCAALYKYSSSFDYWGQGTQVTVSS	high polyreactivity
QVQLVESGGGLVQAGGSLRLSCAASGFIFAYNAMGWYRQAPGKERELDAAISRSGGSTRYADSVKGRFTISRDNAKNTVYLQMNSLKPEDTAVYYCNVSRYGYGVGRGLYIYDYWGQGTQVTVSS	high polyreactivity
QVQLVESGGGLVQAGGSLRLSCAASGFIFAYNAMGWYRQAPGKERELVAAISWSGGSTYYADSVKGRFTISRDNAKNTVYLQMNSLKPEYTAVYYCNAKYLGRRWDGNYNYWGQGTQVTVSS	high polyreactivity
QVQLVESGGGLVQAGGSLRLSCAASGFIFAYNIIGWSRHAPGTERELVADISGTGSTNYADSVKGRFTISRDNAKNTVYLQMNSLKPEDTAVYYCAAAKFDVSFWLYFWGQGTQVTVSS	low polyreactivity
QVQLVESGGGLVQAGGSLRLSCAASGFIFAYYAMGWYIQAPGKERELVAAISLSGARTYYADSVKGRFTISRDTAKNTVYLQMNSLKPEDTAVYYCAATPWSYEYYYWGQGTQVTVSS	low polyreactivity
QVQLVESGGGLVQAGGSLRLSCAASGFIFAYYAMGWYRQAPGKERELVAGINRTGSTNYADSVKGRFSISRDNAKNTVYLQMNSLKPEDTAVYYCAARGYRSGGGYNYWGQGTQVTVSS	high polyreactivity
QVQLVESGGGLVQAGGSLRLSCAASGFIFDANAMGWYRQAPGKERELVAAISRRGGRTYYADSVKGRFTISRDNAKNTVYLQMNSLKPEDTAVYYCAADWPDASRYGGGYWGQGTQVTVSS	high polyreactivity
QVQLVESGGGLVQAGGSLRLSCAASGFIFDDNTMGWYRQAPGKERELVAAISYSAGSTYYADSVKGRFTISRDNAKNTVYLQMNSLKPEDTAVYYCNKDAASWDYYGGNDYWGQGTQVTVSS	low polyreactivity
QVQLVESGGGLVQAGGSLRLSCAASGFIFDLYAMGWYRQAPGKERELVAAITTSGGTTYYADSVKGRFTISRDNAKNTVYLQMNSLKPEDTAVYYCAARRYSWYYYWGQGTQVTVSS	high polyreactivity
QVQLVESGGGLVQAGGSLRLSCAASGFIFDPYGMGWYRQAPGKERELVAAITASGGTTYYADSVKGRFTISLDYANNTVYLQLNSLKPEDTAVYYCAAAVWYRGWYRYDYWGQGTKVTVSS	low polyreactivity
QVQLVESGGGLVQAGGSLRLSCAASGFIFDQYAMGWYRQAPGKERELVATITSDGDTYYADSVKGRFTISRDNAKNTVYLQMNSLKPDDTAFYYFAVDPGPYTTGYEYWGQGTQLTVSS	low polyreactivity
QVQLVESGGGLVQAGGSLRLSCAASGFIFDRYAMGWSRQAPGKERELVAAITGSGGSTYYADSVKGRFTISRDNAKNTVYFQMNSLKPEDTAVYYSAAESYDYFALFYVSIPYYYWGQGTQVTVSS	high polyreactivity
QVQLVESGGGLVQAGGSLRLSCAASGFIFDSNAMGWYRQAPGKERELVAAISRRGGSTYYADSVKGRFTISRDNAKNTVYLQMNSLKPEDTAVYYCNAEYGSHVKYGYWGQGTQVTVSS	high polyreactivity
